We go through 26 sequences from the supplement of paper PMC9732359.

± gives the uncertainty stated by the source.

The nature of this data set: protein stability index of a GFP-peptide fusion (yeast GPS) (PSI 1-4); higher = more stable; sorted into four equal gates, so the index is relative within each strain. The procedure, abridged:
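Mid-log yeast cultures in leucine-free medium, carrying a pooled plasmid library, were sorted into four equal gates by their GFP/Cherry fluorescence ratio. Each plasmid expressed Cherry along with GFP fused upstream of a tiled 17-residue yeast protein peptide. Plasmids recovered from each gate were PCR-amplified and Illumina-sequenced, with reads assigned to strains by barcodes. The protein stability index was obtained by summing each gate's read frequency weighted by its gate number.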

In the case of VAGAIRAGIIIAKLSVI [RPS2], the protein stability index (doa10∆) was 1.91 ± 0.1, the protein stability index (pdr5∆) is 2.35 ± 0.098, the protein stability index (san1∆) came to 1.4 ± 0.13 and the protein stability index (ubr1∆) was found to be 2.65 ± 0.083.
On the same counts, the results for NENNNNSSEKNNNNNNN [MED2] are 2.91 ± 0.066, 2.96 ± 0.065, 3.04 ± 0.071 and 2.95 ± 0.07.
On the same counts, the results for CKSLISENEDTKDLLSK [CSE2] are 3.23 ± 0.098, 3.21 ± 0.093, 3.1 ± 0.066 and 3.22 ± 0.12.
Take PVFHKKAKTTKKVVLRL [RPL42A]: the protein stability index runs as follows: (doa10∆) 2.95 ± 0.11; (pdr5∆) 1.92 ± 0.091; (san1∆) 2.25 ± 0.094; (ubr1∆) 1.98 ± 0.14.
As to HKCDELITLFNKGELET [RPO31], the protein stability index came to 2.72 ± 0.095 (doa10∆), 3.15 ± 0.07 (pdr5∆), 2.98 ± 0.094 (san1∆) and 2.92 ± 0.1 (ubr1∆).
On the same counts, the results for ARDIISHNFQNAIFQME [PCI8] are 2.79 ± 0.063, 2.94 ± 0.069, 2.75 ± 0.046 and 2.92 ± 0.05.
In the same order, the values of NMEIRNLRLKILTIIEE [GRR1] are 1.62 ± 0.065, 1.53 ± 0.049, 1.83 ± 0.078 and 1.33 ± 0.046.
On the same counts, the results for TAAETFKLFNKYRPETA [RPL8A] are 2.8 ± 0.065, 3 ± 0.059, 2.64 ± 0.072 and 2.8 ± 0.051.
In the case of KENGQLIGAATKFKGGK [SEC65], the protein stability index is, setting by setting: (doa10∆) 1.7 ± 0.057; (pdr5∆) 1.65 ± 0.073; (san1∆) 1.54 ± 0.11; (ubr1∆) 2.17 ± 0.072.
In the case of LKVLSEHLDCMNFISKE [PCI8], the protein stability index (doa10∆) worked out at 2.72 ± 0.09, the protein stability index (pdr5∆) stood at 3.14 ± 0.099, the protein stability index (san1∆) worked out at 3.2 ± 0.047 and the protein stability index (ubr1∆) was determined as 3.03 ± 0.061.
In the same order, the values of VRDVAAQDFINAYASFL [RPS19A] are 2.85 ± 0.078, 2.5 ± 0.092, 2.96 ± 0.22 and 2.21 ± 0.088.
Regarding VLKADRSWNEPSKSQTN [YML103C/NUP188], the protein stability index stood at 2.93 ± 0.11 (doa10∆), 3.16 ± 0.1 (pdr5∆), 2.89 ± 0.097 (san1∆) and 3.27 ± 0.083 (ubr1∆).
For the sequence KEQADIYAKQQEQLKQM [ARP7], the protein stability index is, setting by setting: (doa10∆) 1.75 ± 0.065; (pdr5∆) 2.25 ± 0.086; (san1∆) 1.78 ± 0.14; (ubr1∆) 2.88 ± 0.066.
For RNTYQSAMGKQAMGVFL [RPB2], the protein stability index is, setting by setting: (doa10∆) 1.62 ± 0.097; (pdr5∆) 1.63 ± 0.11; (san1∆) 1.53 ± 0.12; (ubr1∆) 1.79 ± 0.052.
On the same counts, the results for RKANREEKLKANKEKKR [RPL24B] are 2.86 ± 0.074, 1.96 ± 0.065, 2.12 ± 0.087 and 2.27 ± 0.053.
As to DFREKALYIAMMTRRVV [RET1], the protein stability index is, setting by setting: (doa10∆) 1.18 ± 0.077; (pdr5∆) 1.58 ± 0.12; (ubr1∆) 1.37 ± 0.074.
With ARNVTFDSLRNFIVHSP [GRR1], the protein stability index runs as follows: (doa10∆) 2.14 ± 0.063; (pdr5∆) 2.35 ± 0.057; (san1∆) 2.25 ± 0.08; (ubr1∆) 1.94 ± 0.041.
On the same counts, the results for TRLTAYQELAYRATSLD [YML031W/NDC1] are 3.13 ± 0.11, 3.01 ± 0.11, 3.32 ± 0.072 and 3.04 ± 0.11.
In the same order, the values of FQEGVVVAKKDFNQAKH [RPS10A] are 2.1 ± 0.27, 2.92 ± 0.27, 2.91 ± 0.16 and 2.79 ± 0.12.
For IYQIHIPYAAKLLFQEL [RPB2], the protein stability index turned out to be 2.64 ± 0.12 (doa10∆), 1.98 ± 0.12 (pdr5∆) and 2.88 ± 0.077 (ubr1∆).
The sequence PSLIQEEEEDTTTTANI [NUT1] returned a protein stability index (doa10∆) of 3.04 ± 0.11, a protein stability index (pdr5∆) of 3.12 ± 0.16, a protein stability index (san1∆) of 3.18 ± 0.12 and a protein stability index (ubr1∆) of 3.16 ± 0.19.
On to WSFYNGNVLINDTLPDE [SNU114], for which the protein stability index by setting is: (pdr5∆) 2.23 ± 0.16; (ubr1∆) 1.7 ± 0.16.
In the case of PNGEGSKTWETYEMRIH [RPS20], the protein stability index amounted to 3.09 ± 0.091 (doa10∆), 3.35 ± 0.069 (pdr5∆), 3.05 ± 0.095 (san1∆) and 3.33 ± 0.045 (ubr1∆).
With SGHDDLVHDVVYDFYGR [YGL100W/SEH1], the protein stability index runs as follows: (doa10∆) 2.49 ± 0.068; (pdr5∆) 2.75 ± 0.067; (san1∆) 2.39 ± 0.089; (ubr1∆) 2.5 ± 0.065.
NDWQMLEMLKPCVEDGF [RPB2]: the protein stability index amounted to 2.79 ± 0.09 (doa10∆), 3.22 ± 0.21 (pdr5∆), 3.06 ± 0.12 (san1∆) and 2.68 ± 0.099 (ubr1∆).
On the same counts, the results for RPPVKAILQEKILSILN [ECM29] are 1.46 ± 0.058, 1.83 ± 0.084, 1.71 ± 0.14 and 2 ± 0.11.
